From publication doi:10.1101/2024.04.02.587704

Target: ReoM-His from the ΔprkA ΔmurZ strain LMPR29 (unphosphorylated at Thr-7) (L. monocytogenes) (UniProt B8DE07)
Assay: cross-linking + pull-down

Sequence of UniProt B8DE07 (B8DE07 whole entry, stated change not applied): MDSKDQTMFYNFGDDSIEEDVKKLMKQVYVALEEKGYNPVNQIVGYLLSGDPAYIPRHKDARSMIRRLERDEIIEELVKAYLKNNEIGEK

B1: MurA (L. monocytogenes UDP-N-acetylglucosamine 1-carboxyvinyltransferase) (enzyme)
chain: MEKIIVRGGKQLNGSVKMEGAKNAVLPVIAATLLASKGTSVLKNVPNLSDVFTINEVLKYLNADVSFVNDEVTVDATGEITSDAPFEYVRKMRASIVVMGPLLARTGSARVALPGGCAIGSRPVDLHLKGFEAMGAVVKIENGYIEATAEKLVGAKVYLDFPSVGATQNIMMAATLAEGTTVIENVAREPEIVDLANFLNQMGARVIGAGTEVIRIEGVKELTATEHSIIPDRIEAGTFMIAAAITGGNVLIEDAVPEHISSLIAKLEEMGVQIIEEENGIRVIGPDKLKAVDVKTMPHPGFPTDMQSQMMVIQMLSEGTSIMTETVFENRFMHVEEMRRMNADMKIEGHSVIISGPAKLQGAEVAATDLRAAAALILAGLVADGYTQVTELKYLDRGYNNFHGKLQALGADVERVDDSKVDVTNLASLF
fold MurA copurified, against the prkA+ strain: 3 fold
